Experiment [1] deals with 2Ig-B7H3 (Cat: B73-H5253) (UniProt Q5ZPR3 29-245). Nature of the experiment: SPR (Biacore 8K, 25 C), B7H3 captured by anti-human IgG, VHH as analyte, 1:1 model. The protocol: (§1) 4Ig-B7H3 (Cat: 11188-H02H) and 2Ig-B7H3 (Cat: B73-H5253) proteins were coupled onto a CM5 Biocore sensor derivatized via amine coupling with anti-human IgG antibody (Cat: 29234600). The VHH fragments were then flowed through at a rate at 40 μl/min. Association of VHH to B7H3 proteins was monitored for 120 seconds and disassociation of VHH in buffer 1×HBS (0.01 M HEPES, pH 7.4, 0.15 M NaCl, 3 mM EDTA, 0.05% v/v surfactant P20) was monitored for more than 120 seconds.
(§2) Ka and Kd were determined by fitting the real-time sensorgram to a 1:1 binding model using Biacore Insight Evaluation software. Binding disassociation equilibrium constants (KD) were calculated from kinetics rates as follows: […]
For orientation: SPR reads the build-up and loss of mass on a sensor chip optically.

Experiment [2] has as its target T1, 4Ig-B7H3 (Cat: 11188-H02H) (human).
T1 construct: also called B7H3-4IG; 4Ig-B7H3 proteins
The description is as above. The protocol: as §1, §2

Experimental findings from patent US20260085122A1 (BEONE MEDICINES I, published 2026) are described below.

In general, Kd refers to the concentration at which binding is half-saturated. Read a low Kd as higher affinity. The term koff denotes the rate constant with which the complex falls apart. Lower therefore signals a long-lived complex. The kon is the rate constant with which the complex forms. The low end stands for slower complex formation, the high end for faster complex formation.

Chain of 2Ig-B7H3 (Cat: B73-H5253) (Q5ZPR3 other isoform, or with tags, fused parts or gaps): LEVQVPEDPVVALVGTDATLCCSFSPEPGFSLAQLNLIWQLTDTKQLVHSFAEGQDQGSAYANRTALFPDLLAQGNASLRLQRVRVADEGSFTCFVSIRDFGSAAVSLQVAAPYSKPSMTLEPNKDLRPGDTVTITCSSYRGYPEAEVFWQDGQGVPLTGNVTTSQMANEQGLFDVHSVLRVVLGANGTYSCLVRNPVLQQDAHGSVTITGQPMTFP
T1 sequence (Q5ZPR3 29-461): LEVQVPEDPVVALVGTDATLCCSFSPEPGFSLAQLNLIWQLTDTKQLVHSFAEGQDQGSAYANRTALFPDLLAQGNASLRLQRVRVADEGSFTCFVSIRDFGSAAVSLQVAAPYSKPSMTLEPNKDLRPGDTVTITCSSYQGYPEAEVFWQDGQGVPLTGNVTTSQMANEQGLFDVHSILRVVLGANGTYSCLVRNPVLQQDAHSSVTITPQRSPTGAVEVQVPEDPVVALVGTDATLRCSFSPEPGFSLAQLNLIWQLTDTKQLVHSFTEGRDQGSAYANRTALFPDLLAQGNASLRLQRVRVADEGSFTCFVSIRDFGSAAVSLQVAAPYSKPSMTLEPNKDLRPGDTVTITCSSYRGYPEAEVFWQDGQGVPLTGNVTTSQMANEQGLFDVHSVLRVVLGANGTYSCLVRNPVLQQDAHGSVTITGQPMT

B1: VHH1_C002 (VHH)
VHH: EVQLLESGGGLVQPGGSLRLSCAASGFTFSDYHMSWVRQAPGKGLEWVSGILNTGLSPTYAATVTGRFTISRDNSKNTLYLQMNSLRAEDTAVYYCAQGYYRATPSQANRGQGTLVTVSS
notes: Monovalent VHH fragment with C-terminal 6xHis-tag, no Fc
For the molecule B1, in experiment [1], the affinity, expressed as Kd, was 43.3 nM; the koff came out at 0.129 s⁻¹; the kon came out at 2.99e+06 M⁻¹ s⁻¹. In experiment [2], this molecule showed a Kd of 3.89 nM, a koff of 0.0096 s⁻¹ and a kon of 2.47e+06 M⁻¹ s⁻¹.

B2: VHH1_C001 (VHH)
VHH: EVQLVESGGGLVQPGGSLRLSCAASPRTFQTYFMGWFRQAPGKELEWVSVINWSGGTSYYKDSVKGRFTISRDNSKNTLYLQMNSLRAEDTAVYYCAAKGSGTYDREGEYDYWGQGTLVTVSS
notes: as for B1
Consider B2, for which, in experiment [1], binding was characterised by a dissociation constant (Kd) of 94.1 nM, the koff came out at 0.27 s⁻¹ and the kon amounted to 2.87e+06 M⁻¹ s⁻¹. Also, in experiment [2], the Kd came to 7.41 nM, the koff worked out at 0.00677 s⁻¹ and the kon stood at 914000 M⁻¹ s⁻¹.
